Laboratory results taken from article PMC7340258, “Induced DNA bending by unique dimerization of HigA antitoxin” (IUCrJ, 2020).

How the values were obtained:
[1] = target: the molecule itself; test: SEC; Superdex 75 (10/300GL), 20 mM citric acid pH 5.0, 150 mM NaCl, 2 mM β-mercaptoethanol; single peak at 26 kDa
MtHigA3 = target: T1, MtHigA3 (Mycobacterium tuberculosis H37Rv, UniProt O53333 1-109); test: EMSA; 0.1-0.6 uM protein, 0.01 uM DNA; conditions: protein: recombinant; tags: C-terminal […]; chain copies: 2; blunt
T1 sequence: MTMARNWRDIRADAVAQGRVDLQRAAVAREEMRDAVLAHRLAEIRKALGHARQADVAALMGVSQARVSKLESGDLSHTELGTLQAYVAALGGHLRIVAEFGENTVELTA

B1: M. tuberculosis HigA3 antitoxin (natural protein)
chain: T1 sequence
notes: also called MtHigA3
stoichiometry N [1]: 2

B2: DNA1 (DNA-1, -35 box) (dsDNA)
DNA 1: CCGACGATGACCGCGCAC
DNA 2: GTGCGCGGTCATCGTCGG
binding result (MtHigA3): no binding

B3: DNA4 (DNA-4, palindrome around -10 box) (dsDNA)
DNA 1: AGATATAACCTAGAGGTTATACTG
DNA 2: CAGTATAACCTCTAGGTTATATCT
binding result (MtHigA3): no binding
